{"source": "paper PMC7939390", "about": "(The Journal of Biological Chemistry, 2020)", "key": {"[1]": {"tested_on": "TPase domain of PBP1b", "conditions": "2.0 mM S2d, 1.2 μM PBP1b, FtsN 2 μM, 50 mM phosphate pH 7.0, 37 °C, 3.2 mM 4,4′-dithiodipyridine, absorbance 330 nm; representative of three independent experiments", "protocol": "The activity of the TPase domain of PBP1b was measured in the presence of S2d (analog of the peptide moiety) as a mimic of donor substrates as previously described ([58], [59]). The assay was performed in a UV-Star 96-well microplate (Greiner Bio One) at 37 °C in the presence of 50 mM phosphate buffer, pH 7.0, 2.0 mM S2d, 3.2 mM 4,4′-dithiodipyridine, and 1.2 μM PBP1b. The absorbance at 330 nm was monitored with an Infinite M200 Pro microplate reader (Tecan, Männedorf, Switzerland). FtsN was used at 2 μM to test its effect on the PBP1b activity."}, "[2]": {"biological_target": "T1, PBP1b (Escherichia coli, UniProt P02919)", "T1 sequence (P02919 1-799 isoform P02919-2)": "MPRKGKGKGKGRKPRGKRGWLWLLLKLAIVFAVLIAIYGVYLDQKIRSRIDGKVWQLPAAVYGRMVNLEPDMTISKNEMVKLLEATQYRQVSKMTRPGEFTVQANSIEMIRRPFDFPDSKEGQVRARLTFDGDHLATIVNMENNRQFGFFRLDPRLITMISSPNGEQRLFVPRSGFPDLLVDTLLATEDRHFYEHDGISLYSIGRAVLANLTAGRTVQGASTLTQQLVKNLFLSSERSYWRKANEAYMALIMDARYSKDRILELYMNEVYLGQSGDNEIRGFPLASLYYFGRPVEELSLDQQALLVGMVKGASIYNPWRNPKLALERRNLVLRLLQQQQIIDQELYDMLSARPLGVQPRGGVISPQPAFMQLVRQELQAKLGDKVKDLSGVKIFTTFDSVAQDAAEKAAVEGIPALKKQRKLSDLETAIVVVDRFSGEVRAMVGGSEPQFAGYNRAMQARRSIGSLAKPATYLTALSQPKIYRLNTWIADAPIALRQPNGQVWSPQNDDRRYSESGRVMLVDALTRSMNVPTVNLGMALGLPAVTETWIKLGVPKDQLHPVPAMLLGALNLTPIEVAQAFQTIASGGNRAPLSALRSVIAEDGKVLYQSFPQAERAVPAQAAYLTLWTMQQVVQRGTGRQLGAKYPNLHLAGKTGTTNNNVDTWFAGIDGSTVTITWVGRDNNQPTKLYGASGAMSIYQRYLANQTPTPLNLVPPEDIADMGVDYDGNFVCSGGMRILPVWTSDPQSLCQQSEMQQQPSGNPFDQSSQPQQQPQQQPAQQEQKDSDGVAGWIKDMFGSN", "conditions": "peptide versus full-length FtsN protein; 10 μM dansyl-lipid II, 30 nM PBP1bγ, pH 7.5, 30 °C", "procedure": "(§3) The GTase activity assays with dansyl-lipid II as substrate were performed in a medium binding black 96-well microplate (Greiner Bio One) as described ([57]). The samples contained 10 μM dansyl-lipid II, 50 mM HEPES-NaOH, pH 7.5, 200 mM NaCl, 10 mM CaCl2, 0.085% of decyl-PEG, 20% of DMSO, and 1 unit of N-acetylmuramidase of Streptomyces globisporus (Sigma). […] The reactions were initiated by the addition of 30 nM PBP1bγ (100 nM for PBP1a) and monitored by following the fluorescence decrease over 20 min at 30 °C using an Infinite 200 PRO microplate reader (Tecan, Männedorf, Switzerland) with excitation wavelength at 340 nm and emission at 520 nm."}, "[3]": {"tested_on": "PBP3", "conditions": "cited from earlier work", "from_the_text": "(§1) Bacteria generally have at least one bifunctional (GTase/TPase) PBP of class A and one monofunctional (TPase only) PBP of class B ([2], [13]). E. coli contains three aPBPs: PBP1a, 1b, and 1c, and two bPBPs: PBP2 and PBP3, the latter being involved in cell elongation and division, respectively ([14]). PBP1a and PBP1b are major PG synthases and at least one of them is required for cell viability ([15])."}, "[4]": {"tested_on": "FtsBLQ", "conditions": "cited from earlier work", "from_the_text": "In contrast, no significant change in the FA sig ..."}, "[5]": {"biological_target": "T1, PBP1b", "conditions": "compared with the WT protein; cited from earlier work", "from_the_text": "The stimulation of PBP1b in vitro by FtsN is well-established ([5], [28])."}, "[6]": {"biological_target": "T1, PBP1b", "conditions": "cited from earlier work", "from_the_text": "as §1"}, "[7]": {"tested_on": "E. coli", "conditions": "residue change W83L; cited from earlier work"}, "[8]": {"tested_on": "E. coli EJ801 (ΔponB-ponA^ts)", "assay": "complementation assay of E. coli EJ801 (ΔponB-ponA^ts)", "type": "cell-based, Escherichia coli", "conditions": "42 °C, 4 h, plasmids carrying ponB or mutants, LB 10 g/liter or low salt 0.5 g/liter comparable", "protocol": "To test the activity of the PBP1b mutants in vivo, we tested their ability to complement E. coli strain EJ801, which lacks PBP1b and has a thermosensitive PBP1a ([33]). EJ801 cells were transformed with the corresponding plasmids and grown in LB at 30 °C with 50 µg/ml kanamycin. The preculture was then diluted in 30 ml of fresh LB ([…] NaCl) or LB with […] NaCl medium to an A600nm value of 0.04 and grown at 30 °C until A600nm = 0.1–0.3, and the absorbance of the culture was monitored for 4 h at 42 °C."}, "[9]": {"tested_on": "E. coli EJ801 (ΔponB-ponA^ts)", "assay": "microscopy of EJ801 cells, cell morphology and length", "type": "cell-based, Escherichia coli", "design": "cell length L: unit not given here", "protocol": "Samples were taken from the complementation cultures (42 °C) at different time (1-h intervals), and the cells were fixed as described ([63]). Photographs were taken with a cooled AxioCam MRm (Zeiss) mounted on a Zeiss Axio Imager. Z1 microscope, and the images were acquired in phase-contrast mode using the AxioVision Rel. 4.5 (Zeiss) software. The cell morphologies analysis were determined using ImageJ software (RRID:SCR_003070) running under plugin ObjectJ (RRID:SCR_019190)."}, "[10]": {"tested_on": "PBP1b^R141A/R397A", "type": "biochemical, Escherichia coli", "conditions": "dansyl-lipid II, continuous fluorescence assay; means ± S.D. of three experiments", "procedure": "The error bars represent the values as means ± S.D. of three experiments.\nas §3\nactivity of the PBP1bWT and PBP1bR141A-R397A was monitored in the presence or the absence of LpoB by\ncontinuous fluorescence assay using dansyl-lipid II (LII) as substrate. The error bars represent the values"}, "[11]": {"assay": "thermal stability of PBP1b^R141A-R397A at 42 °C: GTase activity", "type": "biochemical", "conditions": "1 h at 42 °C versus 30 °C, dansyl-lipid II, mean ± s.d. of three experiments (Fig. S1A)", "protocol": "(§2) Figure S1. Stability of the double mutant PBP1bR141A-R397A at 42°C. (A) The purified protein was incubated at 30°C or 42°C for 1 h and its GTase activity was monitored at the same temperature by continuous fluorescence assay using dansyl -lipid II (LII) as substrate. The error bars represent the values as mean ± s.d. of three experiments. (B) after 1h at 30°C or 42°C the protein ( 7 µg) was labelled with Bocillin FL (50 µM) for 30 min at the same temperature and analyzed by SDS-PAGE followed by fluorescence imaging (right) and Coomassie blue staining (left). 1bWT and 1bRR depict PBP1b wild-type and PBP1b double mutant R141A-R397A, respectively. M, Molecular mass marker. […]"}, "[12]": {"assay": "thermal stability of PBP1b^R141A-R397A at 42 °C: Bocillin binding", "conditions": "1 h at 42 °C versus 30 °C, 7 µg protein, Bocillin FL 50 µM 30 min, SDS-PAGE (Fig. S1B)", "protocol": "as §2"}}}
{"molecule": "FtsN: full-length E. coli cell division protein FtsN (protein, left off: His, end not stated, kept) MAQRDYVRRSQPAPSRRKKSTSRKKQRNLPAVSPAMVAIAAAVLVTFIGGLYFITHHKKEESETLQSQKVTGNGLPPKPEERWRYIKELESRQPGVRAPTEPSAGGEVKTPEQLTPEQRQLLEQMQADMRQQPTQLVEVPWNEQTPEQRQQTLQRQRQAQQLAEQQRLAQQSRTTEQSWQQQTRTSQAAPVQAQPRQSKPASSQQPYQDLLQTPAHTTAQSKPQQAAPVARAADAPKPTAEKKDERRWMVQCGSFRGAEQAETVRAQLAFEGFDSKITTNNGWNRVVIGPVKGKENADSTLNRLKMAGHTNCIRLAAGG", "values": [{"measurement": "effect on TPase activity of PBP1b (S2d hydrolysis)", "setting": "[1]", "result": "no effect"}, {"measurement": "concentration required for stimulation of the GTase activity of PBP1b", "setting": "[2]", "result": "~1000", "unit": "nM"}, {"measurement": "effect on the activity of PBP3 (literature)", "setting": "[3]", "result": "no effect on the activity of PBP3"}, {"measurement": "interaction with FtsBLQ (literature)", "setting": "[4]", "result": "absence of strong interaction"}]}
{"molecule": "FtsN^W83L (protein, UniProt P29131 1-319, looked up, variant W83L) Cell division protein FtsN: MAQRDYVRRSQPAPSRRKKSTSRKKQRNLPAVSPAMVAIAAAVLVTFIGGLYFITHHKKEESETLQSQKVTGNGLPPKPEERLRYIKELESRQPGVRAPTEPSAGGEVKTPEQLTPEQRQLLEQMQADMRQQPTQLVEVPWNEQTPEQRQQTLQRQRQAQQLAEQQRLAQQSRTTEQSWQQQTRTSQAAPVQAQPRQSKPASSQQPYQDLLQTPAHTTAQSKPQQAAPVARAADAPKPTAEKKDERRWMVQCGSFRGAEQAETVRAQLAFEGFDSKITTNNGWNRVVIGPVKGKENADSTLNRLKMAGHTNCIRLAAGG", "values": [{"measurement": "interaction with PBP1b (literature)", "setting": "[5]", "result": "reduced compared with the WT protein"}, {"measurement": "stimulation of PBP1b activity in vitro (literature)", "setting": "[6]", "result": "less able to stimulate PBP1b activity"}, {"measurement": "suppression of FtsBLQ-mediated inhibition of PBP1b GTase activity (literature)", "setting": "[6]", "result": "less able to stimulate PBP1b activity and to suppress FtsBLQ-mediated inhibition of PBP1b GTase activity in vitro"}, {"measurement": "FtsN activity in vivo (literature)", "setting": "[7]", "result": "impairs FtsN activity in vivo"}]}
{"molecule": "PBP1b^R141A/R397A (protein) MAGNDREPIGRKGKPTRPVKQKVSRRRYEDDDDYDDYDDYEDEEPMPRKGKGKGKGRKPRGKRGWLWLLLKLAIVFAVLIAIYGVYLDQKIRSRIDGKVWQLPAAVYGRMVNLEPDMTISKNEMVKLLEATQYRQVSKMTAPGEFTVQANSIEMIRRPFDFPDSKEGQVRARLTFDGDHLATIVNMENNRQFGFFRLDPRLITMISSPNGEQRLFVPRSGFPDLLVDTLLATEDRHFYEHDGISLYSIGRAVLANLTAGRTVQGASTLTQQLVKNLFLSSERSYWRKANEAYMALIMDARYSKDRILELYMNEVYLGQSGDNEIRGFPLASLYYFGRPVEELSLDQQALLVGMVKGASIYNPWRNPKLALERRNLVLRLLQQQQIIDQELYDMLSAAPLGVQPRGGVISPQPAFMQLVRQELQAKLGDKVKDLSGVKIFTTFDSVAQDAAEKAAVEGIPALKKQRKLSDLETAIVVVDRFSGEVRAMVGGSEPQFAGYNRAMQARRSIGSLAKPATYLTALSQPKIYRLNTWIADAPIALRQPNGQVWSPQNDDRRYSESGRVMLVDALTRSMNVPTVNLGMALGLPAVTETWIKLGVPKDQLHPVPAMLLGALNLTPIEVAQAFQTIASGGNRAPLSALRSVIAEDGKVLYQSFPQAERAVPAQAAYLTLWTMQQVVQRGTGRQLGAKYPNLHLAGKTGTTNNNVDTWFAGIDGSTVTITWVGRDNNQPTKLYGASGAMSIYQRYLANQTPTPLNLVPPEDIADMGVDYDGNFVCSGGMRILPVWTSDPQSLCQQSEMQQQPSGNPFDQSSQPQQQPQQQPAQQEQKDSDGVAGWIKDMFGSN", "values": [{"measurement": "restoration of growth of EJ801 at the nonpermissive temperature", "setting": "[8]", "result": "unable to rescue E. coli EJ801 at 42 °C"}, {"measurement": "cell length L", "setting": "[9]; EJ801 after 1 h at 42 °C, n = 250, phase contrast, ImageJ/ObjectJ", "result": "6.14 ± 1.84"}, {"measurement": "cell phenotype", "setting": "[9]; EJ801 at 42 °C (double mutant: after 1 h)", "result": "mild elongated phenotype"}, {"measurement": "GTase activity of mutant compared with WT protein", "setting": "[10]", "result": "minor or no difference in the GTase activity compared with the WT protein"}, {"measurement": "GTase activity after incubation at 42 °C", "setting": "[11]", "result": "not affected"}, {"measurement": "Bocillin-binding activity after incubation at 42 °C", "setting": "[12]", "result": "not affected"}]}
